The values below come from patent US20220348661A1 (HARBOUR BIOMED SHANGHAI, published 2022).

B1: PR000511 (antibody, human IgG1, lambda, L234A L235A, V domains shown)
VH: EVQLLESGGGLVQPGGSLRLSCAASGFTFNTYAMNWVRQAPGKGLEWVSRIRSKYNNYATYYADSVKDRFTISRDDSKSTLYLQMNSLRAEDTAVYYCVRHGNFGNSYVSWFAYWGQGTLVTVSS
VL: QAVVTQEPSLTVSPGGTVTLTCRSSTGAVTTSNYANWVQQKPGQAPRGLIGGTNKRAPWTPARFSGSLLGDKAALTLLGAQPEDEAEYFCALWYSNLWVFGGGTKLTVLG
notes: humanized SP34 variant, IgG1 LALA; also called VH3231/VL7461 IgG
B2: PR000513 (antibody, human IgG1, kappa, L234A L235A, V domains shown)
VH: EVQLLESGGGLVQPGGSLRLSCAASGFTFNTYAMNWVRQAPGKGLEWVSRIRSKYNNYATYYADSVKDRFTISRDDSKSTLYLQMNSLRAEDTAVYYCVRHGNFGNSYVSWFAYWGQGTLVTVSS
VL: DAQMTQSPSSLSASVGDRVTITCRSSTGAVTTSNYANWVQQKPGKAPKGLIGGTNKRAPGVPSRFSGSLSGDDATLTISSLQPEDFATYFCALWYSNLWVFGGGTKVEIKR
notes: humanized SP34 variant, IgG1 LALA; also called VH3231/VK1393 IgG
B3: PR004616 (antibody, human IgG1, lambda, L234A L235A, V domains shown)
VH: EVQLLESGGGLVQPGGSLRLSCAASGFTFSTYAMNWVRQAPGKGLEWVSRIRSKYNNYATYYADSVKDRFTISRDNSKNTLYLQMNSLRAEDTAVYYCAKHGNFGNSYVSWFAYWGQGTLVTVSS
VL: QAVVTQEPSLTVSPGGTVTLTCRSSTGAVTTSNYANWVQQKPGQAPRGLIGGTNKRAPWTPARFSGSLLGDKAALTLLGAQPEDEAEYFCALWYSNLWVFGGGTKLTVLG
notes: humanized SP34 variant, IgG1 LALA; also called VH3233/VL7461 IgG
B4: PR002836 (antibody, human IgG1, lambda, L234A L235A, V domains shown)
VH: EVQLVESGGGLVQPGGSLKLSCAASGFTFSTYAMNWVRQASGKGLEWVGRIRSKYNNYATYYADSVKDRFTISRDDSKSTLYLQMNSLKTEDTAVYYCTRHGNFGNSYVSWFAYWGQGTLVTVSS
VL: QAVVTQEPSLTVSPGGTVTLTCRSSTGAVTTSNYANWVQQKPGQAPRGLIGGTNKRAPWTPARFSGSLLGDKAALTLLGAQPEDEAEYFCALWYSNLWVFGGGTKLTVLG
notes: humanized SP34 variant, IgG1 LALAPG; also called VH3733/VL7461 IgG
B5: PR001848 (antibody, human IgG1, lambda, L234A L235A, V domains shown)
VH: EVQLLESGGGLVQPGGSLRLSCAASGFTFSTYAMNWVRQAPGKGLEWVSRIRSKYNNYATYYADSVKDRFTISRDDSKSTLYLQMNSLRAEDTAVYYCVRHGNFGNSYVSWFAYWGQGTLVTVSS
VL: QAVVTQEPSLTVSPGGTVTLTCRSSTGAVTTSNYANWVQQKPGQAPRGLIGGTNKRAPWTPARFSGSLLGDKAALTLLGAQPEDEAEYFCALWYSNLWVFGGGTKLTVLG
notes: humanized SP34 variant, IgG1 LALAPG; also called VH3232/VL7461 IgG
B6: PR002742 (antibody, human IgG1, lambda, L234A L235A, V domains shown)
VH: EVQLVESGGGLVQPGGSLKLSCAASGFTFNTYAMNWVRQASGKGLEWVGRIRSKYNNYATYYADSVKDRFTISRDDSKNTAYLQMNSLKTEDTAVYYCTRHGNFGNSYVSWFAYWGQGTLVTVSS
VL: QAVVTQEPSLTVSPGGTVTLTCRSSTGAVTTSNYANWVQQKPGQAPRGLIGGTNKRAPWTPARFSGSLLGDKAALTLLGAQPEDEAEYFCALWYSNLWVFGGGTKLTVLG
notes: humanized SP34 variant, IgG1 LALA; also called VH3730/VL7461 IgG
B7: PR002834 (antibody, human IgG1, lambda, L234A L235A, V domains shown)
VH: EVQLLESGGGLVQPGGSLRLSCAASGFTFSTYAMNWVRQAPGKGLEWVSRIRSKYNNYATYYADSVKDRFTISRDDSKSTLYLQMNSLRAEDTAVYYCAKHGNFGNSYVSWFAYWGQGTLVTVSS
VL: QAVVTQEPSLTVSPGGTVTLTCRSSTGAVTTSNYANWVQQKPGQAPRGLIGGTNKRAPWTPARFSGSLLGDKAALTLLGAQPEDEAEYFCALWYSNLWVFGGGTKLTVLG
notes: humanized SP34 variant, IgG1 LALAPG; also called VH3235/VL7461 IgG
B8: PR003886 (antibody, human IgG1, lambda, L234A L235A, V domains shown)
VH: EVQLVESGGGLVQPGGSLKLSCAASGFTFSTYAMNWVRQASGKGLEWVGRIRSKYNNYATYYADSVKDRFTISRDDSKNTAYLQMNSLKTEDTAVYYCTRHGNFGNSYVSWFAYWGQGTLVTVSS
VL: QAVVTQEPSLTVSPGGTVTLTCRSSTGAVTTSNYANWVQQKPGQAPRGLIGGTNKRAPWTPARFSGSLLGDKAALTLLGAQPEDEAEYFCALWYSNLWVFGGGTKLTVLG
notes: humanized SP34 variant, IgG1 LALA; also called VH3735/VL7461 IgG
B9: PR001849 (antibody, human IgG1, lambda, L234A L235A, V domains shown)
VH: EVQLVESGGGLVQPGGSLKLSCAASGFTFSTYAMNWVRQASGKGLEWVGRIRSKYNNYATYYADSVKDRFTISRDDSKSTLYLQMNSLKTEDTAVYYCVRHGNFGNSYVSWFAYWGQGTLVTVSS
VL: QAVVTQEPSLTVSPGGTVTLTCRSSTGAVTTSNYANWVQQKPGQAPRGLIGGTNKRAPWTPARFSGSLLGDKAALTLLGAQPEDEAEYFCALWYSNLWVFGGGTKLTVLG
notes: humanized SP34 variant, IgG1 LALAPG; also called VH3732/VL7461 IgG
B10: PR002837 (antibody, human IgG1, lambda, L234A L235A, V domains shown)
VH: EVQLVESGGGLVQPGGSLKLSCAASGFTFSTYAMNWVRQASGKGLEWVGRIRSKYNNYATYYADSVKDRFTISRDDSKNTAYLQMNSLKTEDTAVYYCVRHGNFGNSYVSWFAYWGQGTLVTVSS
VL: QAVVTQEPSLTVSPGGTVTLTCRSSTGAVTTSNYANWVQQKPGQAPRGLIGGTNKRAPWTPARFSGSLLGDKAALTLLGAQPEDEAEYFCALWYSNLWVFGGGTKLTVLG
notes: humanized SP34 variant, IgG1 LALAPG; also called VH3734/VL7461 IgG
B11: PR002469 (antibody, human IgG1, lambda, L234A L235A, V domains shown)
VH: EVQLLESGGGLVQPGGSLRLSCAASGFTFNTYAMNWVRQAPGKGLEWVSRIRSKYNNYATYYADSVKDRFTISRDNSKNTLYLQMNSLRAEDTAVYYCAKHGNFGNSYVSWFAYWGQGTLVTVSS
VL: QAVVTQEPSLTVSPGGTVTLTCRSSTGAVTTSNYANWVQQKPGQAPRGLIGGTNKRAPWTPARFSGSLLGDKAALTLLGAQPEDEAEYFCALWYSNLWVFGGGTKLTVLG
notes: humanized SP34 variant, IgG1 LALA; also called VH3230/VL7461 IgG
B12: PR002833 (antibody, human IgG1, lambda, L234A L235A, V domains shown)
VH: EVQLLESGGGLVQPGGSLRLSCAASGFTFSTYAMNWVRQAPGKGLEWVSRIRSKYNNYATYYADSVKDRFTISRDNSKNTLYLQMNSLRAEDTAVYYCVRHGNFGNSYVSWFAYWGQGTLVTVSS
VL: QAVVTQEPSLTVSPGGTVTLTCRSSTGAVTTSNYANWVQQKPGQAPRGLIGGTNKRAPWTPARFSGSLLGDKAALTLLGAQPEDEAEYFCALWYSNLWVFGGGTKLTVLG
notes: humanized SP34 variant, IgG1 LALAPG; also called VH3234/VL7461 IgG
B13: PR000512 (antibody, human IgG1, lambda, L234A L235A, V domains shown)
VH: EVQLVESGGGLVQPGGSLKLSCAASGFTFNTYAMNWVRQASGKGLEWVGRIRSKYNNYATYYADSVKDRFTISRDDSKSTLYLQMNSLKTEDTAVYYCVRHGNFGNSYVSWFAYWGQGTLVTVSS
VL: QAVVTQEPSLTVSPGGTVTLTCRSSTGAVTTSNYANWVQQKPGQAPRGLIGGTNKRAPWTPARFSGSLLGDKAALTLLGAQPEDEAEYFCALWYSNLWVFGGGTKLTVLG
notes: humanized SP34 variant, IgG1 LALA; also called VH3731/VL7461 IgG
B14: PR000514 (antibody, human IgG1, kappa, L234A L235A, V domains shown)
VH: EVQLVESGGGLVQPGGSLKLSCAASGFTFNTYAMNWVRQASGKGLEWVGRIRSKYNNYATYYADSVKDRFTISRDDSKSTLYLQMNSLKTEDTAVYYCVRHGNFGNSYVSWFAYWGQGTLVTVSS
VL: DAQMTQSPSSLSASVGDRVTITCRSSTGAVTTSNYANWVQQKPGKAPKGLIGGTNKRAPGVPSRFSGSLSGDDATLTISSLQPEDFATYFCALWYSNLWVFGGGTKVEIKR
notes: humanized SP34 variant, IgG1 LALA; also called VH3731/VK1393 IgG
B15: PR002835 (antibody, human IgG1, lambda, L234A L235A, V domains shown)
VH: EVQLLESGGGLVQPGGSLRLSCAASGFTFSTYAMNWVRQAPGKGLEWVSRIRSKYNNYATYYADSVKDRFTISRDNSKSTLYLQMNSLRAEDTAVYYCARHGNFGNSYVSWFAYWGQGTLVTVSS
VL: QAVVTQEPSLTVSPGGTVTLTCRSSTGAVTTSNYANWVQQKPGQAPRGLIGGTNKRAPWTPARFSGSLLGDKAALTLLGAQPEDEAEYFCALWYSNLWVFGGGTKLTVLG
notes: humanized SP34 variant, IgG1 LALAPG; also called VH3236/VL7461 IgG

In the experiment the target is T1, human CD3 (human, UniProt P07766 23-207; P09693 23-182; P04234 22-171; P20963 22-164).
T1 construct: whole, on cells; SP34 is described as an anti-human CD3e antibody; also called human TCR/CD3 complex; CD3 on human pan-T cells
T1 sequence (P07766 23-207, chain 1 of 4): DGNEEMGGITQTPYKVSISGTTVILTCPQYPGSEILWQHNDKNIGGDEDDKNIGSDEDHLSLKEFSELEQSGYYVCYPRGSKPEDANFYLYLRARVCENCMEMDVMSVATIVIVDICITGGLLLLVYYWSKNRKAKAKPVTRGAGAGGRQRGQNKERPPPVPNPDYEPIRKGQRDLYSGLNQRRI
T1 sequence (P09693 23-182, chain 2 of 4): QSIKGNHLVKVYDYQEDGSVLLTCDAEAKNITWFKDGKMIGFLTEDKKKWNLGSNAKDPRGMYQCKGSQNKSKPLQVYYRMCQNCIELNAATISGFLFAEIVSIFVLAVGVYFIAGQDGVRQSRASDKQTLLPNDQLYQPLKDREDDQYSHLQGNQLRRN
T1 sequence (P04234 22-171, chain 3 of 4): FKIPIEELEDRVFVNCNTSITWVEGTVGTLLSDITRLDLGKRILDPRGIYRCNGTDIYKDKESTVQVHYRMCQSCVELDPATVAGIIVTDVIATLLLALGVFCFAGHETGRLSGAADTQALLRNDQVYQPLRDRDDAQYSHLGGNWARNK
T1 sequence (P20963 22-164, chain 4 of 4): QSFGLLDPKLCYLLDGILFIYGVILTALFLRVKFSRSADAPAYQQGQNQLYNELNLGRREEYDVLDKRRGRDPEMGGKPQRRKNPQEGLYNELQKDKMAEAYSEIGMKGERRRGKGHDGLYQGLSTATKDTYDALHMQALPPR
The experiment can be described thus: flow cytometry on human pan-T cells; MFI at 7.4 or 10 µg/ml relative to PR000260. An excerpt: The flow cytometryFACS was used to analyse the binding of the CD3 antibody to CD3-expressing cells, where the CD3-expressing cells could be: CHOK1 cells overexpressing human CD3 or HEK 293 cells (plasmids encoding the ORF of γ, δ, ε, and ζ chains of human-derived CD3 and plasmids encoding the ORF of α and β chains of human TCR were co-transfected with host cells CHOK1 (ATCC, CCL-61) or HEK293 (ATCC, CRL-1573) to construct stable cell lines expressing the structure of the human TCR/CD3 complex); CHOK1 or HEK293 cells overexpressing cynomolgus monkey CD3; human pan-T cells (isolated with the human pan-T cell isolation kit (Miltenyi, #130-096-535) from PBMC); cynomolgus monkey pan-T cells. Specifically, the collected cells were washed twice with PBS containing 2% FBS (FACS buffer), and resuspended with FACS buffer, divided into 96 well plates with 1×10⁵ cells per well, centrifuged at 500 g for 5 minutes. The supernatant was discarded, and 100 μl of pre-gradient diluted CD3 antibody was added, then incubating for 1 hour at room temperature and washing twice with FACS buffer. The cells were resuspended with FACS buffer diluted with secondary antibody Alexa Fluor 488 AffiniPure Goat Anti-Human IgG, Fcγ fragment specific (Jackson ImmunoResearch, #109-545-098), then incubated at room temperature in the dark for 30 minutes. The cells were washed twice with FACS buffer, and resuspended with 200 μl FACS buffer. The fluorescent luminescence signal value were read by flow cytometry (BD FACS CANTOII or ACEA NovoCyte), and the resulted data were processed and analyzed by software FlowJo v10 (FlowJo, LLC). The software GraphPad Prism 8 was used for data processing and graphical analysis, and parameters such as binding curves and EC50 values can be obtained by four-parameter nonlinear fitting.
FIG. 7(A) to (G) show the binding ability of the CD3 antibodies obtained in the Example 4.2 (including PR000260 and its mutants) to human pan-T cells, respectively. The fluorescence intensity MFI of the CD3 antibody binding to human pan-T cells and the relative ratio relative to the initial antibody PR000260 were calculated when the antibody concentration was 7.4 or 10 μg/ml.
In general terms: In flow cytometry, cells or beads pass a laser one at a time.
Take B1: the binding result is “binds”.
To B2 belongs “binds”.
On to B3, for which the binding result was “binds”.
To B4 belongs “binds”; to B5, “binds”; to B6, “binds”.
To B7 belongs “binds”.
To B8 belongs “binds”; to B9, “binds”; to B10, “binds”.
For B11, the binding result is reported as “binds”.
To B12 belongs “binds”; to B13, “binds”; to B14, “binds”.
To B15 belongs “binds”.
